From PMC4939597, “Mechanism for insulin-like peptide 5 distinguishing the homologous relaxin family peptide receptor 3 and 4” (Scientific Reports, 2016)
No end group written: not given here.

Key:
human RXFP3 [1] = molecular target: T1, human RXFP3 (Homo sapiens, UniProt Q9NSD7); assay: Receptor activation assay, CRE-controlled NanoLuc reporter; assay type: cell-based; conditions: lower than wild-type R3/I5
T1 construct: expressed in transfected cells; host or cells: HEK293T
T1 sequence (Q9NSD7 1-469): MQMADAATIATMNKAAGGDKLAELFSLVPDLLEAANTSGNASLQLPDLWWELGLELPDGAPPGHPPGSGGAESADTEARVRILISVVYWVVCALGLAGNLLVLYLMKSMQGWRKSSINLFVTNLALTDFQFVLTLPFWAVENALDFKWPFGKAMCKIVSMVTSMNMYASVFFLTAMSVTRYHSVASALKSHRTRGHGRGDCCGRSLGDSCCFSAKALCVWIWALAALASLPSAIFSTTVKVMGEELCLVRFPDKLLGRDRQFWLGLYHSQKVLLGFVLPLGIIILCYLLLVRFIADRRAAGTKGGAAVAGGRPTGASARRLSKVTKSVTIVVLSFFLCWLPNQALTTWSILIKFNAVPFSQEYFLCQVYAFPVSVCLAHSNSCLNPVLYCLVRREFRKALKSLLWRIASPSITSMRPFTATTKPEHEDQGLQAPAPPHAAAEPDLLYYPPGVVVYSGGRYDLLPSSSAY
Experimental: (§1) Figure 4 Receptor activation activities of the mature INSL5 and R3/I5 mutants towards RXFP3 and RXFP4. HEK293T cells transiently cotransfected by human RXFP3 or human RXFP4 and a CRE-controlled NanoLuc reporter were used for the activation assays. The measured data were expressed as mean ± SE (n = 3) and fitted to sigmoidal or linear curves using the software SigmaPlot 10.0.
(§2) The receptor activation assays of the mature INSL5 and R3/I5 mutants were carried out using a cAMP-response element (CRE)-controlled NanoLuc reporter according to our previous procedure. Briefly, HEK293T cells were transiently cotransfected with the expression construct of human RXFP3 or human RXFP4 and the CRE-controlled NanoLuc reporter vector pNL1.2/CRE. Next day, the transfected cells were trypsinised, seeded into a 96-well plate, and continuously cultured for 24–36 h to ~90% confluence. To start activation assay, the medium was removed and the activation solution (serum-free DMEM medium plus 1% bovine serum albumin) containing 1.0 μM of forskolin and varied concentrations of peptide was added (100 μl/well). After being continuously cultured at 37 °C for 4 h, the activation solution was removed and the cells were lysed by lysis solution (100 μl/well, from Promega). The cell lysate was then transferred to a white opaque 96-well plate (50 μl/well), mixed with the freshly diluted substrate (50 μl/well), and bioluminescence was immediately measured on a SpectraMax M5 plate reader (Molecular Devices) using the luminescence mode. The measured bioluminescence data were expressed as mean ± SE (n = 3) and fitted to sigmoidal or linear curves using the SigmaPlot10.0 software.

human RXFP4 [2] = molecular target: T2, human RXFP4 (Homo sapiens, UniProt Q8TDU9); assay: as above; assay type: cell-based; conditions: HEK293T cells cotransfected with human RXFP4 and CRE-controlled NanoLuc reporter; 1.0 μM forskolin; 37 °C, 4 h; mean ± SE, n = 3; SEM
T2 construct: expressed in transfected cells; host or cells: HEK293T
T2 sequence (Q8TDU9 whole entry): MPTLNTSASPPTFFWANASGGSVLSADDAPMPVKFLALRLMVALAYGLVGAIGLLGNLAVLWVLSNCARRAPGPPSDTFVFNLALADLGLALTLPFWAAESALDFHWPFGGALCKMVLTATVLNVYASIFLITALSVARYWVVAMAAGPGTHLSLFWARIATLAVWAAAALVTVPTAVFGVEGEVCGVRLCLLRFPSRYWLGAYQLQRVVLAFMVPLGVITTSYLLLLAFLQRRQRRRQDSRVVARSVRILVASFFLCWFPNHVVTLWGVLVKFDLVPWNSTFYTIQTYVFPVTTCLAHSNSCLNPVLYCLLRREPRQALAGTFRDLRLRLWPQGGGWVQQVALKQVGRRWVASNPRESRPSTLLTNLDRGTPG
Experimental: as §1, §2

human RXFP3 [3] = molecular target: T1, human RXFP3; assay: Receptor binding assay, competition with NanoLuc-conjugated R3/I5 tracer; conditions: HEK293T cells transiently overexpressing human RXFP3; 0.5 nM NanoLuc-conjugated R3/I5 tracer; 21 °C, 2 h; mean ± SE, n = 3; SEM
Experimental: (§3) Figure 3 Receptor binding activities of the mature INSL5 and R3/I5 mutants towards RXFP3 and RXFP4. A NanoLuc-conjugated R3/I5 peptide was used as tracer and HEK293T cells transiently overexpressing human RXFP3 or human RXFP4 were used as receptor source. The tracer concentration used in these assays was 0.5 nM. The nonspecific binding was obtained by competition with 1.0 μM of relaxin-3. The measured data were expressed as mean ± SE (n = 3) and fitted to sigmoidal curves using the software SigmaPlot 10.0.
(§4) The receptor binding assays of the mature INSL5 and R3/I5 mutants were carried out using a NanoLuc-conjugated R3/I5 peptide as tracer and the human embryonic kidney (HEK) 293T cells transiently overexpressing human RXFP3 or human RXFP4 as receptor source. Nonspecific binding was obtained by competition with 1.0 μM of human relaxin-3. Briefly, HEK293T cells were transiently transfected with the expression construct of human RXFP3 or human RXFP4. Next day, the transfected cells were trypsinised, seeded into a 96-well plate, and continuously cultured for 24–36 h to confluence. To start binding assay, the medium was removed and the binding solution (serum-free DMEM medium plus 1% bovine serum albumin) containing 0.5 nM of the NanoLuc-conjugated R3/I5 tracer and varied concentrations of competitor was added (100 μl/well). After incubation at 21 °C for 2 h, the binding solution was removed and the cells were washed twice by ice-cold phosphate-buffered saline (200 μl/well for each wash). Thereafter, the cells were lysed by lysis solution (100 μl/well, from Promega, Madison, WI, USA) and the cell lysate was transferred to a white opaque 96-well plate (50 μl/well). After mixing with the freshly diluted substrate (50 μl/well), bioluminescence was immediately measured on a SpectraMax M5 plate reader (Molecular Devices, Sunnyvale, CA, USA) using the luminescence mode. The measured bioluminescence data were expressed as mean ± SE (n = 3) and fitted to sigmoidal curves using the SigmaPlot10.0 software.

human RXFP4 [4] = molecular target: T2, human RXFP4; assay: as above; conditions: for pIC50 RXFP4: HEK293T cells transiently overexpressing human RXFP4, 0.5 nM NanoLuc-conjugated R3/I5 tracer, 21 °C, 2 h, mean ± SE, n = 3, SEM
Experimental: as §3, §4

CC[C@H](C)[C@@H]1NC(=O)[C@H](Cc2ccccc2)NC(=O)[C@H](CCC(=O)O)NC(=O)[C@H](CCCNC(=N)N)NC(=O)CNC(=O)[C@@H](NC(=O)[C@H](CC(C)C)NC(=O)[C@H](CCCCN)NC(=O)[C@@H](NC(=O)CNC(=O)[C@H](CCC(=O)O)NC(=O)[C@@H]2CCCN2C(=O)[C@H](C)NC(=O)[C@H](C)NC(=O)[C@@H](N)CCCNC(=N)N)C(C)C)CSSC[C@@H]2NC(=O)[C@@H](NC(=O)[C@H](CC(C)C)NC(=O)[C@@H](NC(=O)[C@H](CCC(N)=O)NC(=O)[C@H](CC(C)C)NC(=O)[C@H](CC(=O)O)NC(=O)[C@@H](N)CCC(N)=O)[C@@H](C)O)CSSC[C@H](NC(=O)CNC(=O)[C@H](CC(=O)O)NC(=O)[C@H]([C@@H](C)O)NC2=O)C(=O)N[C@@H](CO)C(=O)N[C@@H](CCSC)C(=O)N[C@@H]([C@@H](C)O)C(=O)N[C@@H](CC(=O)O)C(=O)N[C@@H](CC(C)C)C(=O)N[C@@H](CO)C(=O)N[C@@H](C)C(=O)N[C@@H](CC(C)C)C(=O)N[C@H](C(=O)O)CSSC[C@@H](C(=O)NCC(=O)NCC(=O)N[C@@H](CO)C(=O)N[C@@H](CCCNC(=N)N)C(=O)N[C@@H](Cc2c[nH]c3ccccc23)C(=O)O)NC(=O)[C@H]([C@@H](C)O)NC(=O)[C@H](Cc2ccccc2)NC(=O)[C@H]([C@@H](C)CC)NC(=O)[C@H](C(C)C)NC(=O)[C@H](C)NC(=O)[C@H](CCCNC(=N)N)NC1=O [[Y(B5)E]R3/I5]
fold lower activation potency towards RXFP3 compared with wild-type R3/I5 (human RXFP3 [1]): ~ 6 fold

[R(B12)L,F(B20)Y,G(B23)A,G(B24)S]R3/I5: recombinant mature two-chain R3/I5 mutant (chain 1 RAAPYGVRLCGLEFIRAVIYTCASSRW; chain 2 QDLQTLCCTDGCSMTDLSALC; not fully specified; two-chain, three disulfides; A-chain N-terminal pyroglutamate likely; possible unprinted extra residues as in m2)
pEC50 RXFP4 (human RXFP4 [2]): 8.71 ± 0.06

[Y(B5)E,R(B12)L,F(B20)Y,G(B23)A,G(B24)S]R3/I5: recombinant mature two-chain R3/I5 mutant (chain 1 RAAPEGVRLCGLEFIRAVIYTCASSRW; chain 2 QDLQTLCCTDGCSMTDLSALC; disulfide (positions not given here); not fully specified; also: A-chain N-terminal pyroglutamate likely)
pEC50 RXFP4 (human RXFP4 [2]): 8.24 ± 0.05 | pIC50 RXFP3 (human RXFP3 [3]): 8.11 ± 0.02 | pIC50 RXFP4 (human RXFP4 [4]): 7.61 ± 0.05

[F(B20)Y,G(B23)A,G(B24)S]R3/I5: recombinant mature two-chain R3/I5 mutant (chain 1 RAAPYGVRLCGREFIRAVIYTCASSRW; chain 2 QDLQTLCCTDGCSMTDLSALC; disulfide (positions not given here); not fully specified; also: A-chain N-terminal pyroglutamate likely)
pEC50 RXFP4 (human RXFP4 [2]): 9.02 ± 0.05 | pIC50 RXFP3 (human RXFP3 [3]): 8.45 ± 0.04 | pIC50 RXFP4 (human RXFP4 [4]): 7.91 ± 0.02

[G(B23)A,G(B24)S]R3/I5: recombinant mature two-chain R3/I5 mutant (chain 1 RAAPYGVRLCGREFIRAVIFTCASSRW; chain 2 QDLQTLCCTDGCSMTDLSALC; disulfide (positions not given here); not fully specified; also: A-chain N-terminal pyroglutamate likely)
pIC50 RXFP3 (human RXFP3 [3]): 8.61 ± 0.03 | pIC50 RXFP4 (human RXFP4 [4]): 8.06 ± 0.04

[R(B12)L,G(B23)A,G(B24)S]R3/I5: recombinant mature two-chain R3/I5 mutant (chain 1 RAAPYGVRLCGLEFIRAVIFTCASSRW; chain 2 QDLQTLCCTDGCSMTDLSALC; disulfide (positions not given here); not fully specified; also: A-chain N-terminal pyroglutamate likely)
pEC50 RXFP4 (human RXFP4 [2]): 8.16 ± 0.04 | pIC50 RXFP3 (human RXFP3 [3]): 8.38 ± 0.03 | pIC50 RXFP4 (human RXFP4 [4]): 7.83 ± 0.04

CC[C@H](C)[C@@H]1NC(=O)[C@H](Cc2ccc(O)cc2)NC(=O)[C@H]([C@@H](C)CC)NC(=O)[C@H](C(C)C)NC(=O)[C@H]([C@@H](C)O)NC(=O)[C@H](CCCNC(=N)N)NC(=O)[C@H]([C@@H](C)CC)NC(=O)[C@H](Cc2ccc(O)cc2)NC(=O)[C@H](CCC(=O)O)NC(=O)[C@H](CCCNC(=N)N)NC(=O)CNC(=O)[C@@H](NC(=O)[C@H](CC(C)C)NC(=O)[C@H](CCCNC(=N)N)NC(=O)[C@@H](NC(=O)[C@H](CO)NC(=O)[C@H](CCC(=O)O)NC(=O)[C@@H](N)CCCCN)C(C)C)CSSC[C@@H]2NC(=O)[C@@H](NC(=O)[C@H](CC(C)C)NC(=O)[C@@H](NC(=O)[C@H](CCC(N)=O)NC(=O)[C@H](CC(C)C)NC(=O)[C@H](CC(=O)O)NC(=O)[C@@H](N)CCC(N)=O)[C@@H](C)O)CSSC[C@H](NC(=O)CNC(=O)[C@H](CC(=O)O)NC(=O)[C@H]([C@@H](C)O)NC2=O)C(=O)N[C@@H](CO)C(=O)N[C@@H](CCSC)C(=O)N[C@@H]([C@@H](C)O)C(=O)N[C@@H](CC(=O)O)C(=O)N[C@@H](CC(C)C)C(=O)N[C@@H](CO)C(=O)N[C@@H](C)C(=O)N[C@@H](CC(C)C)C(=O)N[C@H](C(=O)O)CSSC[C@@H](C(=O)NCC(=O)NCC(=O)N[C@@H](CO)C(=O)N[C@@H](CCCNC(=N)N)C(=O)N[C@@H](Cc2c[nH]c3ccccc23)C(=O)O)NC1=O [[L(B9)R,A(B20)G,S(B21)G]INSL5]
fold lower binding potency towards RXFP4 compared with wild-type INSL5 (human RXFP4 [4]; lower than wild-type INSL5): ~ 6 fold

[G(B23)A,G(B24)S]R3/I5: recombinant mature two-chain R3/I5 mutant (chain 1 RAAPYGVRLCGREFIRAVIFTCASSRW; chain 2 QDLQTLCCTDGCSMTDLSALC; not fully specified; two-chain, three disulfides; A-chain N-terminal pyroglutamate likely; possible unprinted extra residues as in m2)
pEC50 RXFP4 (human RXFP4 [2]): 8.44 ± 0.04

[R(B12)L,F(B20)Y,G(B23)A,G(B24)S]R3/I5: recombinant mature two-chain R3/I5 mutant (chain 1 RAAPYGVRLCGLEFIRAVIYTCASSRW; chain 2 QDLQTLCCTDGCSMTDLSALC; disulfide (positions not given here); not fully specified; also: A-chain N-terminal pyroglutamate likely)
pIC50 RXFP3 (human RXFP3 [3]): 8.40 ± 0.04 | pIC50 RXFP4 (human RXFP4 [4]): 7.75 ± 0.05
